Test results taken from patent US20250076264A1.

Biological target: Human α-thrombin (Haematologic Technologies, Inc.) (human)
Test: cell-based or functional assay

With “Antithrombin (Grifols Therapeutics Inc.) (from UniProt P01008 33-464)” the time to completion of the fluorescence increase (dissociation of the TBA15-F9+TBA29-D9+thrombin complex) after adding 1940 nM ATIII to 200 nM complex was 600 s.
